A short description of the series: label from the status in PepcDB records.
Consider “MPIHSLSLAGFRSIRKLTLELDALNVVVGANGCGKSNLYKSIQLLHAAAEGGLSAALAAEGGAQKAMWAGGTRRGDKARVPKRMILSARLDDYDYELQLGYPEPSCSLFALDPLVKEESLWLAGHGRRPSTLLLERRNQAAFLCGVEGERNSYPASLRAEESLFGQLAEPHRYPELSQVRETLRNWRFYHEFAIWPGSPLRAPQVGIRSPVLAHDGANLAAAFQTIVEIGDHELLHSVLTDAFPDSRFLVDAQQGRFQMLMRRDGLLRPLEAAELSDGTLRFLCLAVALLSPRPPAFMALNEPENSLHPALLPALARLIAEASRHSQLWVTSHSPELAERIRRHRPLKTFQLSLRDGETVLQDDLEHHHHHH”, for which the protein production entry is “failed”.

In the case of “MNDFTFRCERPSLRLFAAAVVAVLLGLAPASSESVRKSGYAIGTESCGSGDLAFPRLQIDMKAGFCAGLVASEEDRLKFPRSIVQVPGRDLFVVADMGGWGHTDGRLLLLDPHAPPGQRFKELLTGLEYPFGLVIGPDRKLYASTAEAIFRFDPLADNPRGTVETIIRHMPGRRITLPDGTRLDESAHPLKQFVFDRNGRLFVNVGSHSDDCITPAPITKPCAAAEGASAMAAIWLFTPPSGGVFPALRPNDPDPPHTVYARGLRNSMALALHPNFPDAGYAFLQGENGRDLPDIFKPNEEINAIEQGRHYGWPYCYDLSTPSPEFRSVLQSGTYKSLCTANALYKPPFSLLPPHGAPLAMLYYHGAKFPELEGKLLVGLHGYRPTGSRVLAYDVDDHGFPRPSPAPVRYHVSCAADPTHSFQTDAGEVAAAPFEELIAGWHRVNGARPQGAPVGMTVAEDGAIWLVEDKNQTVIRIDRAAGDAPQPLPCDTRSQAMIDQLAAFIARDAQNSVRLTTLRKGLVEKHCLGCHSDFGLKAGQSEAEKDATVLRFMLSQDGWIYPGDPDSGRLRTRLRGLGAEKLMPPGGESLPKTEPGYARLLDTADLLVARMVPGTRIRIKAGPPQRRFFGKTNKECGEIPAAKVVVVTQRSAVDKPGFSRFFRPADPYLNGECTDDDGYYIRQEFLVPVQ”, the protein production result is listed as “failed”.

Take “MSNSHLGTLCFIISLLGLANFSLSQTGLDDSTMQSLKSSLNLTSDVDWSNPNPCKWQSVQCDGSNRVTKIQLKQKGIRGTLPTNLQSLSELVILELFLNRISGPIPDLSGLSRLQTLNLHDNLFTSVPKNLFSGMSSLQEMYLENNPFDPWVIPDTVKEATSLQNLTLSNCSIIGKIPDFFGSQSLPSLTNLKLSQNGLEGELPMSFAGTSIQSLFLNGQKLNGSISVLGNMTSLVEVSLQGNQFSGPIPDLSGLVSLRVFNVRENQLTGVVPQSLVSLSSLTTVNLTNNYLQGPTPLFGKSVGVDIVNNMNSFCTNVAGEACDPRVDTLVSVAESFGYPVKLAESWKGNNPCVNWVGITCSGGNITVVNMRKQDLSGTISPSLAKLTSLETINLADNKLSGHIPDELTTLSKLRLLDVSNNDFYGIPPKFRDTVTLVTEGNANMGKNGPNKTSDAPGASPGSKPSGGSDGSETSKKSSNVKIIVPVVGGVVGALCLVGLGVCLYAKKRKRPARVQSPSSNMVIHPHHSGDNDDIKLTVAASSLNSGGGSDSYSHSGSAASDIHVVEAGNLVISIQVLRNVTNNFSEENILGRGGFGTVYKGELHDGTKIAVKRMESSVVSDKGLTEFKSEITVLTKMRHRHLVALLGYCLDGNERLLVYEYMPQGTLSQHLFHWKEEGRKPLDWTRRLAIALDVARGVEYLHTLAHQSFIHRDLKPSNILLGDDMRAKVSDFGLVRLAPDGKYSIETRVAGTFGYLAPEYAVTGRVTTKVDIFSLGVILMELITGRKALDETQPEDSVHLVTWFRRVAASKDENAFKNAIDPNISLDDDTVASIEKVWELAGHCCAREPYQRPDMAHIVNVLSSLTVQWKPTETDPDDVYGIDYDMPLPQVLKKWQAFEGLSQTADDSGSSSSAYGSKDNTQTSIPTRPSGFADSFTSVDGR”: the protein production entry is listed as “failed”.

Take “TDVSSWIVYPSGKVYVAAVRLERVVLTCELCRPWAEVRWTKDGEEVVESPALLLQKEDTVRRLVLPAVQLEDSGEYLCEIDDESASFTVTVTEPPVRIIY”: the protein production result is on record as “not failed”.

In the case of “MKRAYKIEINPTDDQKSKIHQTIGVSRFIYNFYIAHNKEIYEKEGKFVSGMDFSKWLNNEYIPNNQDKKWIKEVSSKATKQAIMNGDKAFKDFFKKAKGFPRFKKKKNQDVKAYFPKNNKTDWTLERHRVKIPTLGWVRLKEFGYIPKNSVVKSGTVSQKADRYYVSILVEETYIKISNPNNEGLGIDLGIKEFAICSNGNKFKNINKTSTVKKIEKKLKREQRKLSRKYESLKIRNKNIKEGRATRQNIQKQVVKVQRLHQRLANIRTDYINKTVFSIVKQKPSYITIEDLAVSNMMKNKHLSKAISSQKFFEFKTKLMSKCKQNNIELRIVDRFYPSSKTCSNCGKIKKDLKLSDRIYKCDCGFTIDRDLNASINLKNAKEYKIA”, the protein production entry is listed as “failed”.

For the sequence “MKIAIFRTSGVIAPFVIDGYITGFREAGHEVWGIDLTTEGLDFTKLRSFQPDFVLAYGYNGFCKSPNGYALRELGIPLVSLHYDCPYLARNDGLSDEINNFPEYYYEFVWDDSFLELLRNDGTENCDHILLATDPTWFHPIALDSPCIESSVCFVGGVSAHVEQNCVGIELVDKFIDEVIYSKLHNMEVPTFEICKQFFSTPEYRAVHQVYTTEPASFWQMIYYKIHGKGSTVMRKYILDSIEGVDLHIYGGGNGWDKPNAIFHEKVPYGTELSKAFQQYALNLNISSLQLEKAINNRPFDAYASKAFMLNDYRDDMIRAFPAHWEEITFRNLDEFAEKGEYFLTHAQERRELVADLYDHTLRHHTYRHRADQIVEKLAAINFLNRPQQPKTQTSRSILAIDEDNYADYCKDLNTCPVCGGTEFNLKFSFLGHEDYKSTFDQCMDCQAVFLNPCPTDEYLTKFYNEIYYSPQHRQKMGWDPNLDTPNPNSFFLHQRRMDFVEKYVPEELKFPRGKLLDIGCSTGAFLWEASLRYWDVCGIEISDKAAEVAREKYGLAVTTGTLLESSFDDETFDVVTAWDVLEHIANPAPFLTILRRILKQGGLILLNTPNINSADAAYAGEQWRHLDAPLHPVLYDFISIRILLKKYGFQCLEVSSGDEYHGQMKIAARKA”, the protein production result is listed as “failed”.

“MEEKRRRARVQGAWAAPVKSQAIAQPATTAKSHLHQKPGQTWKNKEHHLSDREFVFKEPQQVVRRAPEPRVIDREGVYEISLSPTGVSRVCLYPGFVDVKEADWILEQLCQDVPWKQRTGIREDITYQQPRLTAWYGELPYTYSRITMEPNPHWHPVLRTLKNRIEENTGHTFNSLLCNLYRNEKDSVDWHSDDEPSLGRCPIIASLSFGATRTFEMRKKPPPEENGEYTYVERVKIPLDHGTLLIMEGATQADWQHRVPKEYHSREPRVNLTFRTVYPDPRGAPW”: the protein production result was “failed”.

Turning to “MNALAVRWNDWPITRKSLAVVTLPLLLLAVALMAIYSVERQNIAAENDVRQTLEVLSDLYEAHALLAETAAGVRGYRLVRRDEFLTPYRDAEPRLQRVADRLSQRITDPSQAQRFARIKPLFAEKMQGWRRLLAPDLSREEEIRQLWDGKYKLDILRAELRELRNYETAQLQVRTAKAQGLRQRNLIITLSAAMLGGLGAVFAVAWFASALSGRLRTLAANADRLGEGLPLAPQPRAGDELGQVGQRLAQASELLAARAAEAQLARREAETANRAKTEFLSRSSHELRTPLNAILGYAQVLEMDLPEPGHRRHLRHILGAGRHLLGLITELLDIARIEADQLDLSPEPISVRAAVHEALGLIAPDADKHGIALQPASIDGPWTVRADAQRLRQVLLNLLSNAVKFNRTGGQVQVSAQADGEQVRITVADQGAGLTPAQIERLFTPFERLGAERSAVEGTGLGLALSKRLIEAMGGQIGVDSSSDGARFWISLPQGEHQHSEPTRPLVPPSNAGSGVCRLLSIEDNPSNQALIRTLTERRPQWQLLEAASLAQARELLQHGAPDLILLDLHLSDGNGEELLRELQAQPAMAAIPVVVISADATSATLARVGNQGVRAYLTKPLDVAEFFTVIDGLLA”, the protein production result is reported as “not failed”.

Take “MSLTQIVNPIIYPSRTIPRRFTAISPFKTLSPQFSRHPPHALSRRLFLPSVSSIWDAITGGGDSNPREAIAAVRRGMQLFRQGDVAGSVAEFDRAIILDPRQKAYLWQRGLSLYYVDRFEEGAEQFRIDVAQNPNDTEESIWCFICEARLHGVDVARTQFLEVGRDSRPVMREAYNLFKNGGDPEKLVNDFSSGQASEYFYASLYAGLYYEAEGKSENAKFHLTAACGSPYGQRSDDYMASLAKVHCLCRNWSSGIL”: the protein production result was “failed”.

For the sequence “MVKTFRQREEDIVRCNRCGFCEEVCPTYKATGEEFSLARGRNRLMRQSMEGKLDLTKEPEINQHIYSCLLCGACVAACPSSVITDTLIKTARAEITRAKGQPFPIRMALRGVLANQRRLTLGAKVLRFYQRSGARWLARHIGFLNLMGSLGKAEGLLPAIPEKTLRVQLPQLLKKPMKPRHKVAYFAGCMINNFFTAVGEATLRVYQENDIEVVVPTSNCCGIPHEAYGDIEMQIKLAKENLDAFSRYEVEAIVTDCASCAHGLHSYAELLQDDPHYGPLAAQLAAKVKDASQYLVEIGFKKEMGPVNATVTYHDPCHAARGLKVKEQPREILKSIPGVKFVEMNESDWCCGGAGSYNVTHYELSRKILARKMDNFKKTGAEYLATSCPACLMQLAHGLDVYRLSGKAIHVMQILDQAYQNRAVRSKAKAG”, the protein production result is on record as “failed”.

Take “MVPDYFSASEWTIIADVLGANSRHLFELYALKQSNHYQSLMGSKAGTFEDIVDAYLAYLQVAVVNPAMDKALLRLQRYATDVRKGSIPYEKLRFGASWRHPPQTEDPTQNSEWAKIQLMDFVQALVNTEFAVGILYTQRDPSFFRPISQGIKRCLVRWNVDEISVSCARTHVGLRFYREVENIKGRCFCCRQGLTFSKITLRRDVGGKNLQLQNGVIVTTDRSSLQRLKQKPDLIYGIWERPHGFNLRSVQENNEHNN”: the protein production entry was “failed”.

For the sequence “MSLSEYRRKRSFDKTREPEPGKTLPPGQRAIFVVQLHHASRRHYDFRLQVGDALKSWAVPKGPSYDPKVKRMAVEVEDHPVDYASFEGEIPRGEYGGGHVAQFDHGVWATAGDPEAQLAKGHLRFELFGNKLKGGWHLVRSGKPARQPQWLLFKEDDAYAGTLEADDLLADVAATPADDVRRAGAGKTQRKGLTTVPPPAAKKRGTWAKQALALSGARRAEMEDAPFAPQLAKLVQSPPEGAQWLHEIKWDGYRILATVTNGKVRLWSRNALEWTDKTPEIADAIQSLGLRNAQIDGELIAGRGTKEDFNLLQATLSGERQVPLALAVFDLLHVDGVDISEAPLRERKQLLQQVLQAAPHMHLAYSSHVEGDGTEAFRVAGEQHFEGIISKRADRPYRDGRSDDWRKTKQLASQEYAVVGYTAPKGSRSGFGSLLLATPDPVHGWLYVGRVGSGFSDALMREVTQQLEGGGRKPTAHIPTPDTDLRGATWFAPRFVVEVFYRGIGGQQLLRQASFKALRPDKRIADLADSDAGNGRSTSSSTQRSAKTRAAKNAATQVAKRAATRATAPARKSAVATPSSAALPTLSSPTKLIYPDIRATKGDVWDYYQAVMDHLLPQIVGRPLSIIRCPSGAEKPCFFQKHHTAGLERVSSVKLTEETGTNAYYLVIEDAPGLLELVQFNALEFHPWGSHADRPDVADRVVFDLDPGPDVPFAEVKRAANDIRKLLAQLELESFLRVSGGKGLHVVVPLNPGCDWEVTKRFAKGFADALAQAEPQRFIATATKRLRNKRIFVDYLRNGRGATAVASYPLRGRPGAPVALPLAWSDLSKLQRADAFTLRDVPEKLRRRRKDPWADMDRIRQNLARWAEQDED”, the protein production entry is listed as “failed”.

Consider “MSQSSDASEKEKPKEKKSQEELEKELDKELKKGGEPKTKKDDQIHKIGETFKAGHTNFTVNKVDRVQKGEYMNVGGAVNEETKTIKDDEERLIIEVTMENIGEDSISYNFIGFDLRDKNDQSVRPVFSIEEKGRILMGGTLVSGKKVTGVLSYVIPKGEQKHYTLVYNPFLADTNSSNTEERVKDDIDYLVKLDLEHHHHHH”, for which the protein production entry is “not failed”.

As to “MRISAWLLCSLSFIAPLSWAESSPADIAAQKQQQILFFNHDDRDIVPDTAVWPWQAIGQLETASGNLCTATLISPHLALTAGHCVVTPPKGEIDNPVALRFLATENGWRYETTEIEALANKTLAKKLKADGEGWIVPPSAAPLDYALIRLKQTPPGIRPLPLWQGSRQELMQALKDNGQRVTQAGYPEDHQETLYRHQDCLITGWVHAAVMAHQCDTLPGDSGSPLMLNSAAGWVLMGIQSSAPDASERDRADNRAVSVTAIRQQLETLAKLSSPKPGSPKLSPK”, the protein production result is “failed”.

Source of the values: a protein production outcome set (Wang et al. 2014).
